Results taken from PMC6155276.

Molecular target: Mycobacterium tuberculosis type-I fatty acid synthase (FAS-I) (Mycobacterium tuberculosis)
Assay: […] (100 mM potassium phosphate pH 7.2, 150 mM KCl, 1 mM TCEP, 1 mM EDTA) […]

Substance “Mycobacterium tuberculosis type-I fatty acid synthase (FAS-I) (enzyme)” has a stoichiometry N of 6.
